FireProtDB (doi:10.1006/jmbi.1999.2569)

B1: Ribonuclease, P00648 (parent)
chain: MMKMEGIALKKRLSWISVCLLVLVSAAGMLFSTAAKTETSSHKAHTEAQVINTFDGVADYLQTYHKLPDNYITKSEAQALGWVASKGNLADVAPGKSIGGDIFSNREGKLPGKSGRTWREADINYTSGFRNSDRILYSSDWLIYKTTDHYQTFTKIR

Variants of: B1
Conditions: Bacillus amyloliquefaciens, pH 6.3, Thermal, DSC, MES 50 mM, structure 1BNI, whole UniProt chain shown; for ddG of mutation (higher = less stable): 54.1 °C

| Variant | ddG of mutation (higher = less stable) [kcal/mol] | Tm [°C] | change of melting temperature, mutant - wild type (higher = more stable) [°C] |
| --- | --- | --- | --- |
| MMKMEGIALKKRLSWISVCLLVLVSAAGMLFSTAAKTETSSHKAHTEAQVINTFDGVADYLQTYHKLPDNYITKSEAQALGWVASKGNLADVAPGKSIGADIFSNREGKLPGKSGRTWREADINYTSGFRNSDRILYSSDWLIYKTTDHYQTFTKIR | 3.4 | 45.5 | -8.6 |
| MMKMEGIALKKRLSWISVCLLVLVSAAGMLFSTAAKTETSSHKAHTEAQVINTFDGVADYLQTYHKLPDNYITKSEAQALGWVASKGNLADVAPGKSIGVDIFSNREGKLPGKSGRTWREADINYTSGFRNSDRILYSSDWLIYKTTDHYQTFTKIR | 7.8 | 34.5 | -19.6 |
| MMKMEGIALKKRLSWISVCLLVLVSAAGMLFSTAAKTETSSHKAHTEAQVINTFDGVADYLQTYHKLPDNYITKSEAQALGWVASKGNLADVAPGKSIAGDIFSNREGKLPGKSGRTWREADINYTSGFRNSDRILYSSDWLIYKTTDHYQTFTKIR | 5.3 | – | – |
| MMKMEGIALKKRLSWISVCLLVLVSAAGMLFSTAAKTETSSHKAHTEAQVINTFDGVADYLQTYHKLPDNYITKSEAQALGWVASKGNLADVAPGKSIVGDIFSNREGKLPGKSGRTWREADINYTSGFRNSDRILYSSDWLIYKTTDHYQTFTKIR | 8.4 | 33 | -21.1 |
